Data reported in PMC3143649 (The Journal of Biological Chemistry, 2011).
Where a chain is given by its changes, count along the chain named. Numbers in names are those of the source. Where “and” joins values, the source holds several entries; their conditions need not be identical. Equal values may be shown once. Read-outs that look alike come from different tables or passages of the source.

Columns and labels:
[1] = biological target: Cys-less MtrE C21S (Neisseria gonorrhoeae) (UniProt Q51006); assay: cross-linking
[2] = biological target: the molecule itself; assay: cross-linking
[3] = biological target: the molecule itself; assay: native MS
[4] = biological target: the molecule itself; assay: atomic force microscopy
[5] = biological target: the molecule itself
[6] = biological target: the molecule itself; assay: negative-stain electron microscopy

B1: NT-MtrC D143C (domain or fragment, Neisseria gonorrhoeae, UniProt P43505 35-412, looked up)
chain: GQPAGREAPAPVVGVVTVHPQTVALTVELPGRLESLRTADVRAQVGGIIQKRLFQEGSYVRAGQPLYQIDSSTYEAGLESARAQLATAQATLAKADADLARYKPLVSACAISKQEYDAAVTAKRSAEASVKAAQAAIKSAGINLNRSRITAPISGFIGQSKVSEGTLLNAGDTTVLATIRQTNPMYVNVTQSASEVMKLRRQIAEGKLLAADGAIAVGIKFDDGTVYPEKGRLLFADPTVDESTGQITLRAAVSNDQNILMPGLYVRVLMDQVAADNAFIVPQQAVTRGAKDTVMIVNAQGGMEPREVTVAQQQGTNWIVTSGLKDGDKVVVEGISIAGMTGAKKVTPKEWAPSENQAAAPQAGVQTASEAKPASEAK
[1]
  stoichiometry N (MtrC per MtrE): 2
[2]
  stoichiometry N: 2

B2: NT-MtrC, the N-terminal truncated (Δ1–34) MtrC (domain or fragment, Neisseria gonorrhoeae, UniProt P43505 35-412, looked up)
chain: B1 chain with C109D
[3]
  stoichiometry N: 6 and 5

B3: NT-MtrC E149C (domain or fragment, Neisseria gonorrhoeae, UniProt P43505 35-412, looked up)
chain: B1 chain with C109D, E115C
[1]
  stoichiometry N (MtrC per MtrE): 2
[2]
  stoichiometry N: 2

B4: MtrC α-helical coiled-coil hairpin domain (domain or fragment, Neisseria gonorrhoeae, UniProt P43505 103-183, looked up)
chain: IDSSTYEAGLESARAQLATAQATLAKADADLARYKPLVSADAISKQEYDAAVTAKRSAEASVKAAQAAIKSAGINLNRSRI
[3]
  stoichiometry N: 2
[4]
  stoichiometry N: 6

B5: MtrE, wild type (natural protein, Neisseria gonorrhoeae, UniProt Q51006 1-467, looked up)
chain: CTMIPQYEQPKVEVAETFQNDTSVSSIRAVDLGWHDYFADPRLQKLIDIALERNTSLRTAVLNSEIYRKQYMIERNNLLPTLAANANGSRQGSLSGGNVSSSYNVGLGAASYELDLFGRVRSSSEAALQGYFASVANRDAAHLSLIATVAKAYFNERYAEEAMSLAQRVLKTREETYNAVRIAVQGRRDFRRRPAPAEALIESAKADYAHAARSREQARNALATLINRPIPEDLPAGLPLDKQFFVEKLPAGLSSEVLLDRPDIRAAEHALKQANANIGAARAAFFPSIRLTGSVGTGSVELGGLFKSGTGVWAFAPSITLPIFTWGTNKANLDVAKLRQQAQIVAYESAVQSAFQDVANALAAREQLDKAYDALSKQSRASKEALRLVGLRYKHGVSGALDLLDAERSSYSAEGAALSAQLTRAENLADLYKALGGGLKRDTQTGK
[5]
  stoichiometry N: 3

B6: MacA (natural protein, E. coli, UniProt P75830 1-371, looked up)
chain: MKKRKTVKKRYVIALVIVIAGLITLWRILNAPVPTYQTLIVRPGDLQQSVLATGKLDALRKVDVGAQVSGQLKTLSVAIGDKVKKDQLLGVIDPEQAENQIKEVEATLMELRAQRQQAEAELKLARVTYSRQQRLAQTKAVSQQDLDTAATEMAVKQAQIGTIDAQIKRNQASLDTAKTNLDYTRIVAPMAGEVTQITTLQGQTVIAAQQAPNILTLADMSAMLVKAQVSEADVIHLKPGQKAWFTVLGDPLTRYEGQIKDVLPTPEKVNDAIFYYARFEVPNPNGLLRLDMTAQVHIQLTDVKNVLTIPLSALGDPVGDNRYKVKLLRNGETREREVTIGARNDTDVEIVKGLEAGDEVVIGEAKPGAAQ
[6]
  stoichiometry N: 6

B7: MtrD (natural protein, Neisseria gonorrhoeae, UniProt Q51073 1-1067, looked up)
chain: MAKFFIDRPIFAWVISIFIIAAGIFGIKSLPVSQYPSVAAPTITLHAIYPGASAQVMEGSVLSVIERNMNGVEGLDYMSTSADSSGSGSVSLTFTPDTDENLAQVEVQNKLSEVLRTLPATVQQYGVTVSKARSNFLMIVMLSSDVQSTEEMNDYAQRNVVPELQRIEGVGQVRLFGAQRAMRIWVDPKKLQNYNLSFADVGSALSAQNIQISAGSIGSLPAVRGQTVTATVTAQGQLGTAEEFGNVILRANTDGSNIYLKDVAKVGLGMEDYSSSTRLNGVNTTGMAVMLSNSGNAMATAKAVKERLAVLEKYFPQGMSWKTPYDTSKFVEISIEKVIHTLIEAMVLVFVVMYLFLQNIRYTLIPTIVVPISLLGGFAFISYMGMSINVLTMFAMILVIGIVVDDAIVVVENVERIMAGEGLPPKEATKKAMGQISGAVIGITAVLISVFVPLAMFSGAAGNIYKQFALTMASSIAFSAFLALTLTPALCATMLKTIPKGHHEEKKGFFGWFNKKFDSWTHGYEGRVAKVLRKTFRMMVVYIGLAVVGVFLFMRLPTSFLPTEDQGFVMVSVQLPAGATKERTDATLAQVTQLAKSIPEIENIITVSGFSFSGSGQNMAMGFAIFKDWNERTASGSDAVAVAGKLTGMMMGTLKDGFGIAVVPPPILELGNGSGLSINLQDRNNTGHTGIAGEGNELIQKMRASGLFDPSTVRAGGLEDSPQLKIDINRAAAAAQGISFADIRTALASALSSSYVSDFPNQGRLQRVMVQADEDARMQPADILNLTVPNKSGVAVPLSTIATVSWENGTEQSVRFNGYPSMKLSASPATGVSTGQAMEAVQKMVDELGGGYSFEWGGQSSEEAKGGSQTLILYGLAVAAVFLVLAALYESWSIPLAVILVIPLGLIGAAAGVTGRNLFEGLLGSVPSFANDIYFQVGFVTVMGLSAKNAILIIEFAKDLQAQGKSAVEAALEAARLRFRPIIMTSFAFILGVVPLYIAAGASSASQRAIGTTVFWGMLVGTLLSVFLVPLFYVVVRKFFKETAHEHEMAVRHASKAGITGSDDKQY
[5]
  stoichiometry N: 3
